Results on 22 molecules are retold here after patent publication US20250218531A1 (ABSCI, published 2025).

For test [1], the target named is T1, human epidermal growth factor receptor 2 (HER2) extracellular domain (human, UniProt P04626 23-629). The test is described as follows: SPR. (Surface plasmon resonance follows binding to a sensor surface in real time, without labels.)
The target of test [2] is T1, human epidermal growth factor receptor …. Put plainly: SPR (Carterra LSA), Fab captured, HER2 ECD as analyte.
Test [3] has the same target. The test is described as follows: SPR, table row 9.
Test [4] shares this target. Put plainly: SPR, table row 4.
Test [5] shares this target. The test is described as follows: SPR, table row 18.
The target is the same in test [6]. The test is described as follows: SPR, table row 8.
Test [7] shares this target. Put plainly: SPR, table row 5.
The target is the same in test [8]. Put plainly: SPR, table row 10.
Test [9] has the same target. Put plainly: SPR, table row 32.
Test [10] shares this target. Put plainly: SPR, table row 35.
Test [11] has the same target.
For test [12] the target is unchanged. The test is described as follows: SPR, table row 26.
Test [13] shares this target. The test is described as follows: SPR, table row 30.
The target is the same in test [14]. The test is described as follows: SPR, table row 34.
The target is the same in test [15]. The test is described as follows: SPR, table row 1.
Test [16] shares this target. Put plainly: SPR, table row 3.
Test [17] has the same target. The test is described as follows: SPR, table row 7.
For test [18] the target is unchanged. Put plainly: SPR, table row 33.
The target is the same in test [19]. Put plainly: SPR, table row 29.
Test [20] shares this target. The test is described as follows: SPR, table row 2.
The target is the same in test [21]. The test is described as follows: SPR, table row 21.
The target is the same in test [22]. The test is described as follows: SPR, table row 27.

Residue numbers refer to the chain shown, from its start. Like-named read-outs stand apart in the source and are kept apart here.

B1: AI Design 1 (multi-step AI designed trastuzumab HCDR1/2/3 variant) (Fab, V domains shown)
VH: EVQLVESGGGLVQPGGSLRLSCAASGFNVSSSYIHWVRQAPGKGLEWVARIYPENGSTRYADSVKGRFTISADTSKNTAYLQMNSLRAEDTAVYYCSRYSYYGGYAFDYWGQGTLVTVSS
VL: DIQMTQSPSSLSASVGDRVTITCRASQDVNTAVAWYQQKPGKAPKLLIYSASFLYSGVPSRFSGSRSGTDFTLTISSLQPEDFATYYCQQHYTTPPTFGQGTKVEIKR
notes: Fab format; also called GFNVSSSY / IYPENGST / SRYSYYGGYAFDY
The molecule B1 came in with a Kd in test [1] of 225 nM.

B2: AI Design 6 (multi-step AI designed trastuzumab variant, native HCDR1) (Fab, V domains shown)
VH: EVQLVESGGGLVQPGGSLRLSCAASGFNIKDTYIHWVRQAPGKGLEWVARIDPADGYTRYADSVKGRFTISADTSKNTAYLQMNSLRAEDTAVYYCAREGGYGYYAMDYWGQGTLVTVSS
VL: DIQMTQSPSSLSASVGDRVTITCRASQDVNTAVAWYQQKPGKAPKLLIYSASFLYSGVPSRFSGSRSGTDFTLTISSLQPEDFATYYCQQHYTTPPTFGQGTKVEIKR
notes: Fab format; also called GFNIKDTY / IDPADGYT / AREGGYGYYAMDY
In turn, B2 showed a Kd in test [1] of 160 nM.

B3: AI Design 8 (multi-step AI designed trastuzumab variant, native HCDR1) (Fab, V domains shown)
VH: B2 VH with D52Y, A54S, D55N, E99Y, Y102S, G103Y, Y104A, A106Y, M107F, D108Y
VL: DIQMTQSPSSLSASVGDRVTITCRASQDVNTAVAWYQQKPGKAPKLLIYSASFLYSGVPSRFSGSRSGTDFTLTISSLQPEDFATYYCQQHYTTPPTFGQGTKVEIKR
notes: Fab format; also called GFNIKDTY / IYPSNGYT / ARYGGSYAYYFYY
B3 returned a dissociation constant Kd in [1] of 18.6 nM.

B4: AI Design 9 (multi-step AI designed trastuzumab variant, native HCDR1 and HCDR2) (Fab, V domains shown)
VH: EVQLVESGGGLVQPGGSLRLSCAASGFNIKDTYIHWVRQAPGKGLEWVARIYPTNGYTRYADSVKGRFTISADTSKNTAYLQMNSLRAEDTAVYYCARYYGSSSYYFAYWGQGTLVTVSS
VL: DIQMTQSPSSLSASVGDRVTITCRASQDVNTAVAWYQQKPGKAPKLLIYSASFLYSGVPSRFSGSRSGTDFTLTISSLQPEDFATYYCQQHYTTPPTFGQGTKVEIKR
notes: Fab format; also called GFNIKDTY / IYPTNGYT / ARYYGSSSYYFAY
Regarding B4, in test [1], the Kd stood at 60.6 nM.

B5: De novo trastuzumab HCDR3 variant TRYFFNGWYYFDV (Fab, V domains shown)
VH: B4 VH with A97T, Y100F, G101F, S102N, S103G, S104W, A108D, Y109V
VL: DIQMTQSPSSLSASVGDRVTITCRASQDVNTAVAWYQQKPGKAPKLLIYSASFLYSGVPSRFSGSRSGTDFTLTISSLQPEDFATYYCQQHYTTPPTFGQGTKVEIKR
notes: Fab format
B5: in [2], the “log10(KD)” value is -9.03 log10(M).

B6: Trast_Her2_50 (Fab, V domains shown)
VH: B4 VH with R98K, Y99G, Y100W, S102V, S103E, S104P, Y105R, Y106E
VL: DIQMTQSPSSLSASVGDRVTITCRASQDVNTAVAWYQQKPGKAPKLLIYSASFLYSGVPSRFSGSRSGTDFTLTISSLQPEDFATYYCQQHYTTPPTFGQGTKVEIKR
notes: also called HCDR3 AKGWGVEPREFAY
With B6, in test [3], the Kd came out at 2.71 nM, the koff was 4.19e-05 s⁻¹ and the kon is 15500 M⁻¹ s⁻¹.

B7: Trast_Her2_131 (Fab, V domains shown)
VH: EVQLVESGGGLVQPGGSLRLSCAASGFNIKDTYIHWVRQAPGKGLEWVARIYPTNGYTRYADSVKGRFTISADTSKNTAYLQMNSLRAEDTAVYYCARDGRYGYQDYWGQGTLVTVSS
VL: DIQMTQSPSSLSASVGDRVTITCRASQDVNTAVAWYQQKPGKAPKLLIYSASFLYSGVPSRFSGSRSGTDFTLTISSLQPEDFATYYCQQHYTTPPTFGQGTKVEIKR
notes: also called HCDR3 ARDGRYGYQDY
Regarding B7, in test [4], the equilibrium dissociation constant (Kd) was found to be 1 nM, the koff is 1e-05 s⁻¹ and the association rate constant (kon) is 9990 M⁻¹ s⁻¹. In test [5], this molecule came in with a Kd of 8.06 nM, a koff of 0.000202 s⁻¹ and a kon of 25000 M⁻¹ s⁻¹.

B8: Trast_Her2_54 (Fab, V domains shown)
VH: B7 VH with R98K, D99N, G100F, R101L, Y102I, Y104T, Q105R, D106Y, Y107W
VL: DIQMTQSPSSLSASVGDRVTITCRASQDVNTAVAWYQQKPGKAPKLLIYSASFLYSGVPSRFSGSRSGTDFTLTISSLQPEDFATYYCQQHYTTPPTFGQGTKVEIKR
notes: also called HCDR3 AKNFLIGTRYW
In test [6], B8 showed a Kd of 2.68 nM, a koff of 4.11e-05 s⁻¹ and a kon of 15400 M⁻¹ s⁻¹.

B9: Trast_Her2_51 (Fab, V domains shown)
VH: B7 VH with R98K, D99H, G100Y, R101D, Y102G, G103W, Y104I, Q105L, D106A
VL: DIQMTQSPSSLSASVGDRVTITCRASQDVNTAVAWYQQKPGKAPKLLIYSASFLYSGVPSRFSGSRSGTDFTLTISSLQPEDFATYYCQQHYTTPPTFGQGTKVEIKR
notes: also called HCDR3 AKHYDGWILAY
Consider B9, for which, in [7], the Kd was found to be 1.03 nM, the koff turned out to be 1e-05 s⁻¹ and the kon came to 9680 M⁻¹ s⁻¹. In test [8], binding was characterised by a dissociation constant (Kd) of 2.89 nM, the dissociation rate constant (koff) is 4.35e-05 s⁻¹ and the kon came to 15100 M⁻¹ s⁻¹.

B10: De novo trastuzumab HCDR3 variant ARYDYGYYIYVS (Fab, V domains shown)
VH: EVQLVESGGGLVQPGGSLRLSCAASGFNIKDTYIHWVRQAPGKGLEWVARIYPTNGYTRYADSVKGRFTISADTSKNTAYLQMNSLRAEDTAVYYCARYDYGYYIYVSWGQGTLVTVSS
VL: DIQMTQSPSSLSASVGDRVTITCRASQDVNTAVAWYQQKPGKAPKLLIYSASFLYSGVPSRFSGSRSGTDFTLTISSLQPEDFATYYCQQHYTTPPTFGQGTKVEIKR
notes: Fab format
Consider B10, for which the “log10(KD)” value in [2] is -8.02 log10(M).

B11: Trast_Her2_59 (Fab, V domains shown)
VH: EVQLVESGGGLVQPGGSLRLSCAASGFNIKDTYIHWVRQAPGKGLEWVARIYPTNGYTRYADSVKGRFTISADTSKNTAYLQMNSLRAEDTAVYYCAKRNAYRGSLDYWGQGTLVTVSS
VL: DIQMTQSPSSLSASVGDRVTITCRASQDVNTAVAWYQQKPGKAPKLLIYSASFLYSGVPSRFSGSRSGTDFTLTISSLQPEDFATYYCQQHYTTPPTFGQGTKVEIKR
notes: also called HCDR3 AKRNAYRGSLDY
As for B11, in test [9], the Kd was found to be 51.1 nM, the koff came out at 0.000717 s⁻¹ and the kon was 14000 M⁻¹ s⁻¹. For the same molecule, in test [10], binding was characterised by a dissociation constant (Kd) of 64.9 nM, the off-rate (koff) was 0.00077 s⁻¹ and the kon turned out to be 11900 M⁻¹ s⁻¹.

B12: Trast_Her2_70 (Fab, V domains shown)
VH: B10 VH with R98K, G102Y, Y103I, I105D, Y106F, V107D, S108I
VL: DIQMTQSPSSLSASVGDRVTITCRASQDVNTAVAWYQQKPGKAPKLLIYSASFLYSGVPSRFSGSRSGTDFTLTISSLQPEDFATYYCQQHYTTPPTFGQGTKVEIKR
notes: also called HCDR3 AKYDYYIYDFDI
As for B12, in test [11], the equilibrium dissociation constant (Kd) was found to be 19.4 nM, the koff came to 0.000369 s⁻¹ and the kon is 19000 M⁻¹ s⁻¹. In test [12], this molecule showed a Kd of 30.5 nM, a koff of 0.000284 s⁻¹ and a kon of 9320 M⁻¹ s⁻¹.

B13: Trast_Her2_231 (Fab, V domains shown)
VH: B10 VH with Y99F, D100G, Y101I, G102S, Y103G, I105Y, Y106W, V107D, S108V
VL: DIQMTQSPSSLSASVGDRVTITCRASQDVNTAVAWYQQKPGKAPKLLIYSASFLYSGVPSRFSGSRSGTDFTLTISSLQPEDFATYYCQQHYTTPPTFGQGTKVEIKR
notes: also called HCDR3 ARFGISGYYWDV
Consider B13, for which, in [13], the Kd is 43.3 nM, the koff is 0.00106 s⁻¹ and the association rate constant (kon) came out at 24500 M⁻¹ s⁻¹. In test [14], this molecule displayed a dissociation constant Kd of 64.4 nM, an off-rate (koff) of 0.0014 s⁻¹ and an on-rate (kon) of 21800 M⁻¹ s⁻¹.

B14: Trast_Her2_49 (Fab, V domains shown)
VH: B11 VH with R99G, N100T, A101S, Y102S, R103W, G104Y, S105N, L106F, D107G, Y108V
VL: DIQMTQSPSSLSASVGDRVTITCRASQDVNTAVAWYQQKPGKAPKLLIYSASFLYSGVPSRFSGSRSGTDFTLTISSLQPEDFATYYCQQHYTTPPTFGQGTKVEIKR
notes: also called HCDR3 AKGTSSWYNFGV
In test [15], B14 registered a Kd of no more than 0.517 nM, a koff of no more than 1e-05 s⁻¹ and a kon of 19300 M⁻¹ s⁻¹.

B15: Trast_Her2_52 (Fab, V domains shown)
VH: B11 VH with R99I, N100S, A101R, R103Y, G104Y, S105G, L106M
VL: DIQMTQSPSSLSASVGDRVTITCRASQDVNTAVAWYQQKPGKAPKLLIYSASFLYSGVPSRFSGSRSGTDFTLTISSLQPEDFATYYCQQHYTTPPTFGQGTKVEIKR
notes: also called HCDR3 AKISRYYYGMDY
Consider B15, for which, in test [11], the Kd was found to be 9.01 nM, the off-rate (koff) came to 0.000127 s⁻¹ and the on-rate constant (kon) came out at 14100 M⁻¹ s⁻¹. In test [16], this molecule came in with a Kd of 0.929 nM, a koff of 1e-05 s⁻¹ and an association rate constant (kon) of 10800 M⁻¹ s⁻¹.

B16: De novo trastuzumab HCDR3 variant ARYYYGFYYFDY (Fab, V domains shown)
VH: B10 VH with D100Y, Y103F, I105Y, Y106F, V107D, S108Y
VL: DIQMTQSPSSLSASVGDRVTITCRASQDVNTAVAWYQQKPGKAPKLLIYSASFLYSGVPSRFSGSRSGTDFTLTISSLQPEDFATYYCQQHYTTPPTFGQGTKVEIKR
notes: Fab format
Take B16: in test [2], the “log10(KD)” value is -8.92 log10(M).

B17: Trast_Her2_56 (Fab, V domains shown)
VH: B11 VH with R99P, N100Y, A101Y, Y102F, R103N, G104Y, S105D, D107G, Y108V
VL: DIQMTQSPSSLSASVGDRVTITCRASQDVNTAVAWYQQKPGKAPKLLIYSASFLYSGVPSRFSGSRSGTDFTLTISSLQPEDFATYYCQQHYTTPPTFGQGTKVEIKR
notes: also called HCDR3 AKPYYFNYDLGV
Regarding B17, in [17], the affinity, expressed as Kd, was 2.44 nM; the koff was found to be 2.42e-05 s⁻¹; the on-rate (kon) turned out to be 9940 M⁻¹ s⁻¹. In test [18], this molecule had a Kd of 56.8 nM, an off-rate constant (koff) of 0.000933 s⁻¹ and a kon of 16400 M⁻¹ s⁻¹.

B18: Trast_Her2_58 (Fab, V domains shown)
VH: B11 VH with N100D, A101F, Y102G, G104D, S105W, L106F, D107A
VL: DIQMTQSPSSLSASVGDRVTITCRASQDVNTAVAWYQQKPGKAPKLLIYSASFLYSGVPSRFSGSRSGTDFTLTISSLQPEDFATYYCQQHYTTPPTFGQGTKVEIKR
notes: also called HCDR3 AKRDFGRDWFAY
On to B18, for which, in test [19], the dissociation constant (Kd) stood at 38.8 nM, the koff turned out to be 0.000582 s⁻¹ and the association rate constant (kon) was 15000 M⁻¹ s⁻¹.

B19: Trast_Her2_12 (Fab, V domains shown)
VH: B11 VH with K98G, R99H, N100W, A101T, G104F, S105A, L106D, D107T, Y108L
VL: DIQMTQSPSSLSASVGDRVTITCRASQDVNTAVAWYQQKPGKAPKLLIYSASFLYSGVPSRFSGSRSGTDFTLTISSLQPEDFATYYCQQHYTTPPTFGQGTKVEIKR
notes: also called HCDR3 AGHWTYRFADTL
In [20], B19 came in with a Kd of no more than 0.792 nM, a koff of no more than 1e-05 s⁻¹ and an on-rate (kon) of 12600 M⁻¹ s⁻¹.

B20: De novo trastuzumab HCDR3 variant ARYAGVERPGSFAY (Fab, V domains shown)
VH: EVQLVESGGGLVQPGGSLRLSCAASGFNIKDTYIHWVRQAPGKGLEWVARIYPTNGYTRYADSVKGRFTISADTSKNTAYLQMNSLRAEDTAVYYCARYAGVERPGSFAYWGQGTLVTVSS
VL: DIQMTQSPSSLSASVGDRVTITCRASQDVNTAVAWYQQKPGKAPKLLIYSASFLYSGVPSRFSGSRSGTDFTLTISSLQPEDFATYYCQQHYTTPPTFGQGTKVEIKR
notes: Fab format
As to B20, in [2], the “log10(KD)” value is -6.24 log10(M).

B21: Trast_Her2_57 (Fab, V domains shown)
VH: B4 VH with R98K, Y99P, G101Y, S102Y, S103F, Y105D, Y106G, F107L, A108E
VL: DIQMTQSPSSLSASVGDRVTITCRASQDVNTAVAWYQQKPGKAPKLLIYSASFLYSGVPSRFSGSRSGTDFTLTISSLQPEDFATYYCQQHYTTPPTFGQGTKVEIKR
notes: also called HCDR3 AKPYYYFSDGLEY
B21: in [21], the dissociation constant (Kd) was determined as 15.6 nM, the koff is 0.000321 s⁻¹ and the kon came out at 20600 M⁻¹ s⁻¹. In [22], this molecule gave a Kd of 34.8 nM, an off-rate constant (koff) of 0.000581 s⁻¹ and an on-rate constant (kon) of 16700 M⁻¹ s⁻¹.

B22: De novo trastuzumab HCDR3 variant ANDIYIQGYDLNR (Fab, V domains shown)
VH: EVQLVESGGGLVQPGGSLRLSCAASGFNIKDTYIHWVRQAPGKGLEWVARIYPTNGYTRYADSVKGRFTISADTSKNTAYLQMNSLRAEDTAVYYCANDIYIQGYDLNRWGQGTLVTVSS
VL: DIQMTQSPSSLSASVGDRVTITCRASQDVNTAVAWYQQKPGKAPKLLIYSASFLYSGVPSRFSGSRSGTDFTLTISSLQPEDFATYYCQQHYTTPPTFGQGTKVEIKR
notes: Fab format
On to B22, for which, in [2], the “log10(KD)” value was -8.4 log10(M).

As a reminder, the Kd is the concentration at which binding is half-saturated. Usually koff stands for the first-order rate constant of dissociation. Low readings indicate a long-lived complex, high ones a short-lived complex. The term kon denotes the rate constant with which the complex forms. A high value points to fast association.
